These results are taken from article PMC5825162.

Experiment [1] has as its target KSHV gH/gL glycoprotein complex (gH-V5/gL-Flag), wild type (Kaposi's sarcoma-associated herpesvirus (KSHV)) (UniProt F5HAK9).
For experiment [2], the target named is RRV gH/gL glycoprotein complex (gH-V5/gL-Flag), wild type (rhesus monkey rhadinovirus (RRV)).

UniProt F5HAK9, sequence (F5HAK9 whole entry, looked up, one chain of several): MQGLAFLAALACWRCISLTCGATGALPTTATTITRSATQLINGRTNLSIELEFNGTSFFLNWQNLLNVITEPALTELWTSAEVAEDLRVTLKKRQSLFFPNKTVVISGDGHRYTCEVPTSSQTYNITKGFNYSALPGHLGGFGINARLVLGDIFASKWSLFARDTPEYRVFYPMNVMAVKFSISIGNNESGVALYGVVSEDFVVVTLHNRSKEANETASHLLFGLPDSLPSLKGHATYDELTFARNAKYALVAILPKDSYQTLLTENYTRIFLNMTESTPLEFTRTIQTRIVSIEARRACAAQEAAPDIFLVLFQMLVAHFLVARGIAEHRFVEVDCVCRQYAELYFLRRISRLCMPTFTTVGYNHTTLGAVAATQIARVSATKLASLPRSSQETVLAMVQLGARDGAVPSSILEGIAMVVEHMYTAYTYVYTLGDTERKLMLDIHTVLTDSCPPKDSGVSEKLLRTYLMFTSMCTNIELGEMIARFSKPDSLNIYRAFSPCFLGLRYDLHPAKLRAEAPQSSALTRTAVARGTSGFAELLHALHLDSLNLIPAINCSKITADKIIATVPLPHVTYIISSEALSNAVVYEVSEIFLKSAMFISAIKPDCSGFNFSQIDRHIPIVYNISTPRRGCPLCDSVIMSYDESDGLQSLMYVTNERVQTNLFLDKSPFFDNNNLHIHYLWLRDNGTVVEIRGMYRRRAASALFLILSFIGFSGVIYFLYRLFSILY

For the molecule “soluble EphA2-Fc fusion construct comprising amino acids 25–534 of human EphA2 (from UniProt P29317-1 25-534)”, the inhibition of KSHV wt infection of SLK cells (GFP, flow cytometry) after pre-incubation of the virus with soluble EphA2-Fc, dose series; gH/gL on virions in experiment [1] stood at 90%.

B1: Recombinant, human, soluble EphB3-Fc (Fc fusion)
chain: GCRALEETLMDTKWVTSELAWTSHPESGWEEVSGYDEAMNPIRTYQVCNVRESSQNNWLRTGFIWRRDVQRVYVELKFTVRDCNSIPNIPGSCKETFNLFYYEADSDVASASSPFWMENPYVKVDTIAPDESFSRLDAGRVNTKVRSFGPLSKAGFYLAFQDQGACMSLISVRAFYKKCASTTAGFALFPETLTGAEPTSLVIAPGTCIPNAVEVSVPLKLYCNGDGEWMVPVGACTCATGHEPAAKESQCRPCPPGSYKAKQGEGPCLPCPPNSRTTSPAASICTCHNNFYRADSDSADSACTTVPSPPRGVISNVNETSLILEWSEPRDLGGRDDLLYNVICKKCHGAGGASACSRCDDNVEFVPRQLGLTERRVHISHLLAHTRYTFEVQAVNGVSGKSPLPPRYAAVNITTNQAAPSEVPTLRLHSSSGSSLTLSWAPPERPNGVILDYEMKYFEKSEGIASTVTSQMNSVQLDGLRPDARYVVQVRARTVAGYGQYSRPAEFETTSERGSGAQQLQEQLPL
In experiment [2], B1 gave an inhibition of RRV 26–95 wt infection of SLK cells (YFP, flow cytometry) after pre-incubation of the virus with soluble EphB3-Fc, dose series; gH/gL on virions of 80%.
